Assay results: paper PMC3081289
Residue numbers refer to the chain shown, from its start. Numbers in names are those of the source.

B1: bH1-44 Fab (affinity-improved variant of bH1) HC:R50A; HC:R58A (protein)
chain 1: EVQLVESGGGLVQPGGSLRLSCAASGFNISGTYIHWVRQAPGKGLEWVAAIYPSEGYTAYADSVKGRFTISADTSKNTAYLQMNSLRAEDTAVYYCSRWVGVGFYAMDYWGQGTLVTVSS
chain 2: DIQMTQSPSSLSASVGDRVTITCRASQNIAKTISGYVAWYQQKPGKAPKLLIYWGSFLYSGVPSRFSGSGSGTDFTLTISSLQPEDFATYYCQQHYSSPPTFGQGTKVEIK
B2: bH1-44 Fab (affinity-improved variant of bH1) LC:Y32A (protein)
chain 1: B1 chain 1 with A50R, A59R
chain 2: B1 chain 2 with Y36A

Tests used:
[1] = target: T1, Vascular Endothelial Growth Factor (VEGF), receptor binding domain, VEGF_(8–109); assay: SPR; details: chain shown with the change; for response (Response Units): 0.5 µM Fab, parent: est. 690, read off a plot
T1 chain: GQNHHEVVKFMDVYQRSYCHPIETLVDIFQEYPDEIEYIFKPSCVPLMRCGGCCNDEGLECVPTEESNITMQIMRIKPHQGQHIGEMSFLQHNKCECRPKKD

[2] = target: T1, Vascular Endothelial Growth Factor …; assay: calculated from ΔG (SPR) and ΔH (ITC); details: chain shown with the change; 30°C, phosphate buffer (pH 7.4); parent: est. -4.4 kcal/mol; read off a plot
[3] = target: T1, Vascular Endothelial Growth Factor …; assay: SPR (ΔG derived from KD); details: chain shown with the change; 30°C, phosphate buffer (pH 7.4); parent: est. -12 kcal/mol; read off a plot
[4] = 30°C, Fab over immobilized antigen

Binder | response (Response Units) [1] | Kd [1, 4] [nM] | koff [1, 4] | other: -TΔS [2] [kcal/mol] | dG [3] [kcal/mol]
B1 | 600 | 3 | 10 10^-4 s-1 | -3.7 | -12
B2 | 60 |  |  |  | 
